Test results reported in article PMC3686867, “Characterization of a Novel Putative S-Adenosylmethionine Decarboxylase-Like Protein from Leishmania donovani” (PLoS ONE, 2013).

Key:
[1] = molecular target: T1, S-adenosylmethionine decarboxylase-like protein (ADL; putative S-adenosylmethionine decarboxylase-like proenzyme) (Leishmania donovani, UniProt E9BM59); assay: tryptophan fluorescence quenching titration (saturation isotherm); supported by far-UV CD; format: binding
T1 construct: gene LdCL_300037200; 894 bp L. donovani ADL gene in pQE30, 6×His-ADL, ~33 kDa, dimer
T1 sequence (E9BM59 1-297): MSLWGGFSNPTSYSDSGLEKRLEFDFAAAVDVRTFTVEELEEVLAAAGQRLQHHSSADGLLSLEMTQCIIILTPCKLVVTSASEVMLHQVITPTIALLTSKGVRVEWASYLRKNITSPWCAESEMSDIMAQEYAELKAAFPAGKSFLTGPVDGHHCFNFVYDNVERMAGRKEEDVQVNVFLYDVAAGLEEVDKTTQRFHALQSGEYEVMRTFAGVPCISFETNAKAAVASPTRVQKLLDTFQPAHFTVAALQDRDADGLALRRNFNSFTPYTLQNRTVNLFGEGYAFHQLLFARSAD

[2] = molecular target: Leishmania donovani putative S-adenosylmethionine decarboxylase-like proenzyme (ADL) (Leishmania donovani); assay: SEC; Superdex 75 10/300; ADL 1 mg/ml; 50 mM Tris-HCl pH 7.0, 50 mM NaCl, 3 mM β-me; 25°C; calibrated with low molecular weight standards; elution at 10.4 ml, ~66 kDa
[3] = molecular target: Leishmania donovani putative S-adenosylmethionine decarboxylase-like proenzyme (ADL) (Leishmania donovani); assay: native gel or EMSA; native polyacrylamide gel electrophoresis of purified ADL

stoichiometry N [2] | stoichiometry N [3] | Molecule | Kd [1]
 |  | C[S+](CC[C@H](N)C(=O)[O-])C[C@H]1O[C@@H](n2cnc3c(N)ncnc32)[C@H](O)[C@@H]1O (stereo partly drawn) [S-adenosylmethionine] | 51 ± 5 µM
2 | 2 | Leishmania donovani putative S-adenosylmethionine decarboxylase-like proenzyme (ADL) (natural protein) | 
